Assay results as given in patent US20220073643A1 (NANJING GENSCRIPT BIOTECH, published 2022).
Residue numbers refer to the chain shown, from its start.

B1: 194D3B2 (antibody, V domains shown)
VH: QAYLQQSGAELVRSGASVKMSCKASGYPFTSYNMHWVKQTPGQGLEWVGYIYPGNGGTNYNQKFRDKATLTADTSSSTAYMQISRLTSDDSAVYFCLTGRGFAYWGQGTLVTVSA
VL: DIVMTQSPSSLIVTPGERVTMSCKSSQSLLNSGNQKNYLTWYQQKPGQPPKLLIYRASTRESGVPDRFTGSGSGTDFTLTISSVQAEDLAVYYCQNDYSYPLTFGIGTKLELK
B2: 259B4D4 (antibody, V domains shown)
VH: EIQLQQSGPELMKPGASVRISCKASGYSFTSYYMHWMKQSHVKSLEWIGYIDPFNGNTRYNQKFKDKATLTVDKSSTTAYMHLSSLTSEDSAVYFCASLRFFAYWGQGTLVTVSA
VL: B1 VL with I12T, P15A, R18K, K24N, R56W, T59S, S83T, Y100F, I106A, K109R
B3: 263E9F3 (antibody, V domains shown)
VH: EIQVQQSGPELMKPGASVKISCRSSGYSFTSYYIHWVKQSRGKSLEWIGYIDPFSGGTRYNQKFEGKATLTVDKSSTTAYMHLSSLTSEDSAVYYCASLRFFAYWGQGTLVTVSA
VL: B1 VL with I12T, P15A, R18K, S22T, K36E, K51E, Y55S, E61Q, A86T, I106A
B4: 267B2C5 (antibody, V domains shown)
VH: QVQLKESGPGLVAPSQSLAITCTVSGFSLTTYGVSWVRQPPGKGLEWLGVIWGDGSTHYHSALISRLSIRKDNSKSQVFLKVNSLQTDDTATYYCGKPGRGNAMDYWGQGTSVTVSS
VL: B1 VL with I12T, P15A, R18K, P49S, R56W, S99I, I106G, K109T
B5: 273F3D4 (antibody, V domains shown)
VH: B4 VH with A19S, S28A, V82L, G96A
VL: B1 VL with T5S, I12T, P15A, R18K, P49S, R56W, V84M, S99I, I106A, K109M
B6: 266B11F7 (antibody, V domains shown)
VH: QVQMKESGPGLVAPSQSLSITCTVSGFSLTTYGVTWVRQPPGKGLEWLGVIWGDGSTNYHSALTSRLRISKDKSKSQVFLKLSSLQTDDTATYYCAKPGRGNALDYWGQGTSVTVSS
VL: B1 VL with I12T, P15A, R18K, S22R, I54V, R56W, I81V, S99I, Y100F, I106A
B7: 257G7F7 (antibody, V domains shown)
VH: QAYLQQSGAELVRSGASVKMSCKASGYTFTSHNLHWVKQTPGQGLEWIGYIYPGNGNTNYNQKFKGKATLTADTSSSTAYMQISSLTSEDSAVYFCTRDYYGNSFAYWGQGTLVTVSA
VL: DIVMTQSPSSLTEKAGERVSMSCKSSQSLFNSGNQKNYLTWYQQKPGQPPKLLIYWASTRESGVPDRFTGSGSGTDFTLTISSVQAEDLAVYYCQNNYWFPFTFGAGTKLELK
B8: 271B1B6 (antibody, V domains shown)
VH: B7 VH with S31N, H32Y, L34I, N57G, T58N, N59Y, S77I, T97A
VL: B1 VL with I12T, P15A, R18K, S22N, R56W, V91I, S99Y, I106A
B9: 258D11C4 (antibody, V domains shown)
VH: B7 VH with T30S, L34M, N57G
VL: B7 VL with E61Q, N97D
B10: 275B2G2 (antibody, V domains shown)
VH: EVMLVESGGGLVKPGGSLKLSCAASGFTFRDYTMSWVRQTPEKRLEWVATSIIGGTYTYYPDSVKGRFTISRDNVKNTLYLQMSSLRSEDTAMYYCSRLGRGNAMDYWGQGTSVTVSS
VL: B1 VL with I12T, P15A, R18K, R56W, L102F, I106S, L112I
B11: 262C7C10 (antibody, V domains shown)
VH: B7 VH with S31N, H32Y, L34I, N57G, T58N, N59Y, S77I, T97A
VL: B1 VL with I12T, P15A, R18K, S22N, R56W, V91I, S99Y, I106A
B12: 259C6F4 (antibody, V domains shown)
VH: B7 VH with T30S, L34I, N57D, T97A, A106V
VL: B7 VL with T5I, R18K, F30L, N97A, W99R
B13: 267H5F12 (antibody, V domains shown)
VH: B7 VH with L34M, Y52S, N57Y, K65R, A106T
VL: B7 VL with D76E
B14: 262H9H6 (antibody, V domains shown)
VH: B7 VH with L34M, Y52S, N57Y, K65R, A106T
VL: B7 VL with D76E
B15: 259C6F7 (antibody, V domains shown)
VH: B7 VH with T30S, L34I, N57D, T97A, A106V
VL: B7 VL with T5I, R18K, F30L, N97A, W99R
B16: 277F1F8 (antibody, V domains shown)
VH: B7 VH with A9P, L34M, Y52N, N57G, T58N, T97A, Y107F
VL: B7 VL with K14T, R18K, F30L, N97D, W99R
B17: 265E6G2 (antibody, V domains shown)
VH: B7 VH with H32Y, L34M, N57G, T97A
VL: B1 VL with I2L, I12T, P15A, R18K, R56W, S83N, V84I, T103P, I106A, K113R
B18: 275H9A2 (antibody, V domains shown)
VH: B7 VH with K23R, T28S, L34M, N57G, T58S, N59Y, T69I, A106V
VL: B7 VL with I2V, A15T, R18K, F30L, V84L, A86T, Y98F, W99R, F100Y
B19: 198F10B8 (antibody, V domains shown)
VH: B1 VH with K19R, P28T, T30S, V48I, R65K, Y80F, M81I, R85S, D89E
VL: B1 VL with I12T, P15A, L30F, I106V
B20: 260F8A6 (antibody, V domains shown)
VH: B7 VH with K23R, L34M, N59Y, S77N, S84N, T97V, A106V
VL: B7 VL with I2V, A15T, R18K, F30L, T69I, V84L, A86T, W99M, F100Y
B21: 273C10E5 (antibody, V domains shown)
VH: QVQLQQSGAELVKPGASVKLSCKASGYTFTSFGINWLRQRPEQGLEWIGWIFPGDGNSKYNENFKGKATLTTDKSSSTAYMQVTRLTSEDSAVYFCARFYYGNSFANWGQGTLVTVSA
VL: B1 VL with I12T, P15A, R18K, R56W, S58A, T69A, S99F, L102F, I106A
B22: 260G9E8 (antibody, V domains shown)
VH: B7 VH with Y3D, T30A, L34M, N57G, N59K, K65T, S84T, T97A
VL: B7 VL with R18K, S22R, F30L, E87D, N97D, W99M
B23: 279E8B8 (antibody, V domains shown)
VH: QAYLQQSGAELVRSGASVKISCKASGYTFASHNMHWVKQTPGQGLEWIGYIYPGNGGTKYNQKFTGKATLSADTSSSTAYLQISSLTSEDSAVYFCARDYFGNSFVYWGQGTLVTVSA
VL: B7 VL with R18K, S22R, F30L, E87D, N97D, W99M, F100Y
B24: 280F3B6 (antibody, V domains shown)
VH: B7 VH with L34M, N57G
VL: B7 VL with N97D, F100Y
B25: 268D7H9 (antibody, V domains shown)
VH: B7 VH with S31N, H32Y, L34I, N57G, T58N, N59Y, T97A
VL: B1 VL with V3A, I12T, P15A, R18K, S22N, R56W, V91I, S99Y, I106A, K109T
B26: 196A12B10 (antibody, V domains shown)
VH: QIQWVQSGPELKKPRETVKISCKASGYTFTDYSMHWVKQAPGKGLKWMGWINSETGEATYADDFRGRFALSLETSATTAFLQINSLKNEDTGTYFCARFYYGNSFASWGQGTTLTVSS
VL: DIVMTQFPSSLTVTAGEKVTMTCKSSQSLLNGGNQKNYLTWYQQKPGLPPKLLIYWASTRESGVPDRFTGSGSGTEFTLTISSVQAEDLAVYYCQNNYYFPLTFGAGTKLELK

Target: human Claudin18.2 (human)
Experiment: cell-based or functional assay

Row | CDC % Relative activity [%] | CDC EC50 [µg/mL] | Binder
1 | 574 | 0.275 | B1
2 | 88.2 | 1.69 | B2
3 | 116 | 1.48 | B3
4 | 142 | 1.21 | B4
5 | 105 | 1.56 | B5
6 | 97.4 | 1.77 | B6
7 | 141 | 1.06 | B7
8 | 145 | 1.12 | B8
9 | 142 | 1.05 | B9
10 | 98.4 | 1.66 | B10
11 | 520 | 0.331 | B11
12 | 125 | 1.19 | B12
13 | 172 | 1 | B13
14 | 183 | 0.941 | B14
15 | 117 | 1.27 | B15
16 | 106 | 1.54 | B16
17 | 526 | 0.327 | B17
18 | 142 | 1.15 | B18
19 | 526 | 0.3 | B19
20 | 129 | 1.15 | B20
21 | 67.6 | 2.41 | B21
22 | 164 | 1.05 | B22
23 | 129 | 1.27 | B23
24 | 121 | 1.35 | B24
25 | 140 | 1.23 | B25
26 | 93.6 | 1.69 | B26
